Publication PMC10923862

Tests used:
[1] = biological target: HexaPro spike without foldon (SARS-CoV-2 (Wuhan-Hu-1)) (UniProt P0DTC2); test: SEC
[2] = biological target: HexaPro, soluble SARS-CoV-2 spike ectodomain carrying a foldon domain (SARS-CoV-2 (Wuhan-Hu-1) | not stated) (UniProt P0DTC2); test: SEC
[3] = biological target: HexaPro, soluble SARS-CoV-2 spike ectodomain carrying a foldon domain (SARS-CoV-2 (Wuhan-Hu-1) | not stated) (UniProt P0DTC2); test: SEC-MALS
[4] = biological target: S-3P, soluble SARS-CoV-2 spike ectodomain with C-terminal foldon trimerization domain (SARS-CoV-2 (Wuhan-Hu-1) | not stated) (UniProt P0DTC2); test: SEC
[5] = biological target: S-3P, soluble SARS-CoV-2 spike ectodomain with C-terminal foldon trimerization domain (SARS-CoV-2 (Wuhan-Hu-1) | not stated) (UniProt P0DTC2); test: SEC-MALS
[6] = biological target: S-locked, soluble SARS-CoV-2 spike ectodomain with the disulfide 413C-987C that locks the RBD in the closed conformation, without heterologous trimerization domain (SARS-CoV-2 (Wuhan-Hu-1)) (UniProt P0DTC2); test: SEC-MALS

“HexaPro spike without foldon (from UniProt P0DTC2 14-1208)” showed a stoichiometry N [1] of 3.

“HexaPro, soluble SARS-CoV-2 spike ectodomain carrying a foldon domain (from UniProt P0DTC2 14-1208)” gave a stoichiometry N [2] of 3 and a stoichiometry N [3] of 3.

In the case of “S-3P, soluble SARS-CoV-2 spike ectodomain with C-terminal foldon trimerization domain (from UniProt P0DTC2 14-1208)”, the stoichiometry N [4] is reported as 3 and the stoichiometry N [5] is reported as 3.

“S-locked, soluble SARS-CoV-2 spike ectodomain with the disulfide 413C-987C that locks the RBD in the closed conformation, without heterologous trimerization domain (from UniProt P0DTC2 14-1208)” was tested, and the stoichiometry N [6] was 3.
